Test results from the Human Domainome abundance scans (Beltran et al. 2025).
± gives the uncertainty stated by the source.

B1: Membrane-associated guanylate kinase, WW and PDZ domain-containing protein 2, residues 296 to 340; numbered along this chain, Q86UL8 (parent)
chain: EDNEEPDPLPDNWEMAYTEKGEVYFIDHNTKTTSWLDPRLAKKAK

Variants of: B1
Test: abundance fitness (aPCA) (normalised: wild type 0, dead -1); higher = more abundant; growth selection in yeast, the domain comes from the species named
Details: Homo sapiens

Row | Variant | abundance fitness
1 | E22S | -0.227 ± 0.046
2 | E22T | -0.295 ± 0.063
3 | E22Q | -0.084 ± 0.065
4 | E22Y | -0.404 ± 0.067
5 | E22P | -0.825 ± 0.13
6 | E22W | -0.551 ± 0.051
7 | E22M | -0.314 ± 0.061
8 | E22N | -0.314 ± 0.08
9 | E22R | -0.409 ± 0.048
10 | E22L | -0.321 ± 0.063
11 | E22V | -0.325 ± 0.048
12 | E22C | -0.377 ± 0.095
13 | E22K | -0.234 ± 0.065
14 | E22F | -0.645 ± 0.43
15 | E22G | -0.359 ± 0.042
16 | E22I | -0.517 ± 0.12
17 | E22A | -0.228 ± 0.052
18 | E22D | -0.091 ± 0.05
19 | W35K | -0.494 ± 0.078
20 | W35G | -0.523 ± 0.039
21 | W35S | -0.436 ± 0.054
22 | W35I | -0.492 ± 0.055
23 | W35P | -0.668 ± 0.089

Row | Variant | abundance fitness
24 | W35Q | -0.365 ± 0.065
25 | W35F | -0.083 ± 0.1
26 | W35Y | -0.036 ± 0.068
27 | W35M | -0.247 ± 0.054
28 | W35T | -0.451 ± 0.089
29 | W35C | -0.527 ± 0.072
30 | W35D | -0.547 ± 0.1
31 | W35V | -0.473 ± 0.063
32 | W35A | -0.489 ± 0.042
33 | W35R | -0.362 ± 0.043
34 | L36A | -0.117 ± 0.067
35 | L36D | -0.227 ± 0.12
36 | L36V | 0.025 ± 0.042
37 | L36H | -0.298 ± 0.17
38 | L36F | -0.184 ± 0.11
39 | L36T | -0.127 ± 0.061
40 | L36I | 0.086 ± 0.14
41 | L36K | -0.012 ± 0.054
42 | L36E | -0.111 ± 0.079
43 | L36W | -0.078 ± 0.087
44 | L36N | -0.186 ± 0.09
45 | L36S | -0.125 ± 0.045
46 | L36R | -0.051 ± 0.044

Row | Variant | abundance fitness
47 | L36M | -0.053 ± 0.078
48 | L36G | -0.198 ± 0.057
49 | L36P | -0.776 ± 0.099
50 | L36C | 0.153 ± 0.12
51 | N29G | -0.019 ± 0.049
52 | N29V | -0.051 ± 0.069
53 | N29Y | -0.122 ± 0.13
54 | N29P | -0.673 ± 0.079
55 | N29Q | -0.13 ± 0.12
56 | N29S | -0.011 ± 0.06
57 | N29L | -0.059 ± 0.05
58 | N29R | -0.082 ± 0.05
59 | N29A | 0.022 ± 0.069
60 | N29D | -0.109 ± 0.089
61 | N29W | -0.151 ± 0.056
62 | N29E | -0.081 ± 0.091
63 | N29T | -0.02 ± 0.058
64 | K45V | 0.209 ± 0.28
65 | K45Q | 0.1 ± 0.21
66 | K45G | 0.081 ± 0.067
67 | K45S | 0.076 ± 0.074
68 | K45R | 0.199 ± 0.23
69 | K45E | -0.022 ± 0.098

Row | Variant | abundance fitness
70 | K45W | -0.01 ± 0.087
71 | S34W | -0.784 ± 0.26
72 | S34E | -0.826 ± 0.12
73 | S34R | -0.629 ± 0.073
74 | S34C | -0.181 ± 0.1
75 | S34L | -1.14 ± 0.15
76 | S34A | -0.43 ± 0.064
77 | S34V | -0.758 ± 0.12
78 | S34G | -0.463 ± 0.076
79 | L40W | -0.133 ± 0.059
80 | L40A | 0.059 ± 0.068
81 | L40E | 0.034 ± 0.088
82 | L40V | 0.043 ± 0.045
83 | L40S | -0.022 ± 0.057
84 | L40G | 0.076 ± 0.052
85 | L40Q | 0.024 ± 0.083
86 | L40T | 0.012 ± 0.11
87 | L40R | -0.002 ± 0.053
88 | L40P | 0.043 ± 0.056
89 | L40N | 0.117 ± 0.1
90 | L40K | 0.091 ± 0.077
91 | Y24S | -0.703 ± 0.083
92 | Y24A | -0.664 ± 0.075

Row | Variant | abundance fitness
93 | Y24W | -0.568 ± 0.049
94 | Y24C | -0.546 ± 0.28
95 | Y24N | -1.08 ± 0.49
96 | Y24T | -0.872 ± 0.097
97 | Y24V | -0.598 ± 0.074
98 | Y24G | -0.816 ± 0.048
99 | Y24D | -0.618 ± 0.084
100 | Y24R | -0.86 ± 0.071
101 | Y24Q | -0.809 ± 0.11
102 | Y24L | -0.557 ± 0.09
103 | Y24P | -1.07 ± 0.21
104 | K43T | -0.043 ± 0.12
105 | K43I | -0.139 ± 0.48
106 | K43D | 0.029 ± 0.12
107 | K43L | -0.113 ± 0.053
108 | K43W | -0.2 ± 0.075
109 | K43A | 0.062 ± 0.085
110 | K43R | 0.023 ± 0.063
111 | K43G | 0.066 ± 0.047
112 | K43V | 0.023 ± 0.094
113 | K43N | -0.324 ± 0.42
114 | K43F | -0.142 ± 0.093
115 | F25G | -0.75 ± 0.054

Row | Variant | abundance fitness
116 | F25S | -0.777 ± 0.066
117 | F25L | -0.896 ± 0.064
118 | F25W | -0.103 ± 0.09
119 | F25V | -1.05 ± 0.08
120 | F25E | -0.661 ± 0.14
121 | F25K | -0.637 ± 0.12
122 | F25R | -0.715 ± 0.063
123 | F25T | -0.839 ± 0.077
124 | F25N | -0.756 ± 0.1
125 | D27E | -0.487 ± 0.072
126 | D27G | -0.937 ± 0.074
127 | D27M | -1.03 ± 0.091
128 | D27Y | -0.217 ± 0.38
129 | D27L | -1.3 ± 0.091
130 | D27I | -1.58 ± 0.32
131 | D27C | -0.544 ± 0.13
132 | D27V | -1.39 ± 0.1
133 | D27P | -1.09 ± 0.22
134 | D27A | -0.786 ± 0.12
135 | D27N | -0.151 ± 0.082
136 | D27R | -0.667 ± 0.1
137 | T33E | -0.655 ± 0.06
138 | T33D | -0.848 ± 0.067

Row | Variant | abundance fitness
139 | T33A | -0.438 ± 0.048
140 | T33I | -0.507 ± 0.11
141 | T33L | -0.635 ± 0.075
142 | T33M | -0.488 ± 0.08
143 | T33P | -0.841 ± 0.074
144 | T33K | -0.492 ± 0.047
145 | T33V | -0.272 ± 0.046
146 | T33G | -0.776 ± 0.043
147 | T33W | -0.763 ± 0.056
148 | T33S | -0.236 ± 0.045
149 | T33C | 0.021 ± 0.063
150 | T33Q | -0.637 ± 0.068
151 | T33N | -0.341 ± 0.077
152 | H28W | -0.334 ± 0.044
153 | H28E | -0.642 ± 0.088
154 | H28R | -0.243 ± 0.045
155 | H28K | -0.269 ± 0.1
156 | H28G | -0.431 ± 0.044
157 | H28Q | -0.267 ± 0.06
